Laboratory results published in patent publication US20250051465A1 (published 2025).

T1: full length human LEPR on cells (human, UniProt P48357 22-1165)
T1 sequence: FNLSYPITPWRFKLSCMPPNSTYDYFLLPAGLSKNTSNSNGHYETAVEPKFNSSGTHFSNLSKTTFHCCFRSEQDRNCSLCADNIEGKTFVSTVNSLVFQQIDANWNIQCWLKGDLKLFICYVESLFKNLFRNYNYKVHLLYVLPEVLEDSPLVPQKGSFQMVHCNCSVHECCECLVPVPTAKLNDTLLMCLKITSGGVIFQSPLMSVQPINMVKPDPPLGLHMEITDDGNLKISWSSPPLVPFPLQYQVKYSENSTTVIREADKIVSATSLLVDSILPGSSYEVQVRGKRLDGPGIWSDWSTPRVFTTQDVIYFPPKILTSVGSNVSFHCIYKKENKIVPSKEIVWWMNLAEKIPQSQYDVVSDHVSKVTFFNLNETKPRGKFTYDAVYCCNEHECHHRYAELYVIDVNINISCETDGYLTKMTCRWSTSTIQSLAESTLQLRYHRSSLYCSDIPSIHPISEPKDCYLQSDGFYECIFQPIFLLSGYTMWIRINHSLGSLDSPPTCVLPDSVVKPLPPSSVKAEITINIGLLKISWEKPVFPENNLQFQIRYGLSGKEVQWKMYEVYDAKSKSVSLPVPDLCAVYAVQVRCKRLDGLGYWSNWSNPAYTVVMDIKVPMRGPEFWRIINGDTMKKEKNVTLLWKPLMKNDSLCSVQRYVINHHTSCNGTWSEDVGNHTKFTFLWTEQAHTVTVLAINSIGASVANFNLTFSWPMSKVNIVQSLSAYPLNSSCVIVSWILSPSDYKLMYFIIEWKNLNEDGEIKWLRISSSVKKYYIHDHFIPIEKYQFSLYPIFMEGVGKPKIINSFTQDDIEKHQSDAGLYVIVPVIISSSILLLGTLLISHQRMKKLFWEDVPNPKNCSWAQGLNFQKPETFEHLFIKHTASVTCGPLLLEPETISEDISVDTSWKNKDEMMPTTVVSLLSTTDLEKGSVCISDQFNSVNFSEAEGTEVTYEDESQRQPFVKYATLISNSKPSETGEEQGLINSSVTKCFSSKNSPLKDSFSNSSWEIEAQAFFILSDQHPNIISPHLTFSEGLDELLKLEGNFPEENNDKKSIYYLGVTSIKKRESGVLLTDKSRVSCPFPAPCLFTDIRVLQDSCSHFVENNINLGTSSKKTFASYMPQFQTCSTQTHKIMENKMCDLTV


Key:
[1] = biological target: T1, full length human LEPR on cells; experiment: cell-based or functional assay
[2] = biological target: mouse LEPR extracellular domain expressed with a C-terminal myc-myc-hexahistidine tag (mLEPR.mmh) (mouse, UniProt P48356 22-839); experiment: SPR, captured mAb, 25C and 37C
[3] = biological target: rat LEPR extracellular domain expressed with a C-terminal myc-myc-hexahistidine tag (rLEPR.mmh) (rat, UniProt Q62959 22-839); experiment: SPR, captured mAb, 25C and 37C
[4] = biological target: T2, human LEPR CRH1 (D1)-MMH (human, UniProt P48357 22-229, limits assumed); experiment: Luminex, myc-captured LEPR domain
T2 construct: domain: CRH1 (D1); Transiently expressed, captured from supernatant on anti-myc beads
Method: (§1) Aliquots of microspheres with immobilized anti-myc monoclonal antibodies, prepared as described above, were added individually to 1 mL of the each of these protein supernatants. The microspheres were gently mixed, incubated for two hours at 25° C., washed twice with 1 mL of DBPS, centrifuged to remove the supernatant and finally resuspended in 1 mL of DPBS buffer. Forty-eight μL of anti-myc IgG coupled microspheres from individual reactions with full length human LEPR and with each of the human LEPR domain proteins were withdrawn and mixed together in 3.6 mL of PBS+20 mg/mL BSA+0.05% sodium azide (blocking buffer).
(§2) From this mixed pool, 75 μL of microspheres were plated per well on a 96 well filter plate (Millipore, Cat. No: MSBVN1250) and mixed with 25 μL of individual anti-human LEPR monoclonal antibodies (0.5 or 5 µg/mL), incubated for two hours at 25° C. and then washed twice with 200 μL of DPBS with 0.05% Tween 20 (washing buffer). […] After 30 minutes, the samples were washed twice with 200 μL of washing buffer and resuspended in 150 μL of wash buffer. The Median Fluorescence intensity (MFI) of the microspheres was measured in a Luminex Analyzer.

[5] = biological target: T3, human LEPR CRH1 (D1,D2)-MMH (human, UniProt P48357 22-339, limits assumed); experiment: Luminex, myc-captured LEPR domain
T3 construct: domain: CRH1 (D1,D2); Transiently expressed, captured from supernatant on anti-myc beads
Method: as §1, §2

[6] = biological target: T4, human LEPR CRH1 (D1,D2,D3)-MMH (human, UniProt P48357 22-427, limits assumed); experiment: Luminex, myc-captured LEPR domain
T4 construct: domain: CRH1-Ig (D1,D2,D3); Transiently expressed, captured from supernatant on anti-myc beads; also called CRH1-Ig (D1, D2, D3)
Method: as §1, §2

[7] = biological target: T5, human LEPR CRH1-Ig (D2,D3)-MMH (human, UniProt P48357 230-427, limits assumed); experiment: Luminex, myc-captured LEPR domain
T5 construct: domain: CRH1-Ig (D2,D3); Transiently expressed, captured from supernatant on anti-myc beads
Method: as §1, §2

[8] = biological target: T6, human LEPR Ig (D3)-MMH (human, UniProt P48357 340-427, limits assumed); experiment: Luminex, myc-captured LEPR domain
T6 construct: domain: Ig (D3); Transiently expressed, captured from supernatant on anti-myc beads
Method: as §1, §2

[9] = biological target: T7, human LEPR CRH2-MMH (human, UniProt P48357 428-634, limits assumed); experiment: Luminex, myc-captured LEPR domain
T7 construct: domain: CRH2; Transiently expressed, captured from supernatant on anti-myc beads
Method: as §1, §2

[10] = biological target: T8, human LEPR FNIII-MMH (human, UniProt P48357 636-839, limits assumed); experiment: Luminex, myc-captured LEPR domain
T8 construct: domain: FNIII; Transiently expressed, captured from supernatant on anti-myc beads
Method: as §1, §2

[11] = biological target: T9, human LEPR Ig-CRH2-FNIII-MMH (human, UniProt P48357 330-839, limits assumed); experiment: Luminex, myc-captured LEPR domain
T9 construct: domain: Ig-CRH2-FNIII; Transiently expressed, captured from supernatant on anti-myc beads
Method: as §1, §2

Sequence of rat LEPR extracellular domain expressed with a C-terminal myc-myc-hexahistidine tag (rLEPR.mmh) (Q62959 other isoform, or with tags, fused parts or gaps): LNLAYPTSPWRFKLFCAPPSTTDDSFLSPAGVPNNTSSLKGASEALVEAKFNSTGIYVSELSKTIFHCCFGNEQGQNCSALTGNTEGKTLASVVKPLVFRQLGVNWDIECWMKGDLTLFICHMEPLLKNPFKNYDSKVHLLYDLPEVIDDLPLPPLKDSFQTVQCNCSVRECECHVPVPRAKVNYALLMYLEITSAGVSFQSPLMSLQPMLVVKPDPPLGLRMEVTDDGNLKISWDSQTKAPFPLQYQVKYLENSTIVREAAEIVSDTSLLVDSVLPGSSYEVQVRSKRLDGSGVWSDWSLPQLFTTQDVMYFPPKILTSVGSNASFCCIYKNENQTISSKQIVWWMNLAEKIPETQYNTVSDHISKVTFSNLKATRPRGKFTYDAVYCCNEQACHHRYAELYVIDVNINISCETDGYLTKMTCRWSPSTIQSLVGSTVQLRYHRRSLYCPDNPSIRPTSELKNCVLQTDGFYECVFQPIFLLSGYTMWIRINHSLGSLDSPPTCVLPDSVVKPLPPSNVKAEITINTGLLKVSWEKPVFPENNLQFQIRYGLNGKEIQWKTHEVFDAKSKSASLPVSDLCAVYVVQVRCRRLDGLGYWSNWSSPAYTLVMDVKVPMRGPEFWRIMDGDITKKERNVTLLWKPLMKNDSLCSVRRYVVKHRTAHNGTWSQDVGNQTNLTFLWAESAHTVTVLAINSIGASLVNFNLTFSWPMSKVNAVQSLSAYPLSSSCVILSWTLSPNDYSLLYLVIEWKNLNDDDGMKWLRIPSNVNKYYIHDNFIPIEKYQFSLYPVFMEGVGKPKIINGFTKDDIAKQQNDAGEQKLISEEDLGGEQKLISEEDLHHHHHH
T7 sequence (P48357 other isoform, or with tags, fused parts or gaps limits assumed): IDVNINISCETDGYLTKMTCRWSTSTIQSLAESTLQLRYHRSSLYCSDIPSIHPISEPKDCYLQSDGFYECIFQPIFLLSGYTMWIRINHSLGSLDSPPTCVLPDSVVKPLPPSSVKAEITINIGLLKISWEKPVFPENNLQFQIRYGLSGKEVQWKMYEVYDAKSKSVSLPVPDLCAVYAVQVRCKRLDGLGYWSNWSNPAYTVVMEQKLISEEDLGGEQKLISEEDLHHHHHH
T5 sequence (P48357 other isoform, or with tags, fused parts or gaps limits assumed): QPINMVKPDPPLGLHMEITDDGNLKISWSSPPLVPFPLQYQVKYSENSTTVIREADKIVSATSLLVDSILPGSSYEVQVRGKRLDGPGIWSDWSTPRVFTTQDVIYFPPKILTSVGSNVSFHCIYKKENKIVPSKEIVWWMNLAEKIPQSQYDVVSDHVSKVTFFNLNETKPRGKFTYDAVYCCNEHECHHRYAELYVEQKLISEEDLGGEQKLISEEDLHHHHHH
T6 sequence (P48357 other isoform, or with tags, fused parts or gaps limits assumed): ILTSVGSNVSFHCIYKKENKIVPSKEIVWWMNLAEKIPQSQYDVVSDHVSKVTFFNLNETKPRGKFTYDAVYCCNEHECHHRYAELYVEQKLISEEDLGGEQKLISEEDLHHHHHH
T8 sequence (P48357 other isoform, or with tags, fused parts or gaps limits assumed): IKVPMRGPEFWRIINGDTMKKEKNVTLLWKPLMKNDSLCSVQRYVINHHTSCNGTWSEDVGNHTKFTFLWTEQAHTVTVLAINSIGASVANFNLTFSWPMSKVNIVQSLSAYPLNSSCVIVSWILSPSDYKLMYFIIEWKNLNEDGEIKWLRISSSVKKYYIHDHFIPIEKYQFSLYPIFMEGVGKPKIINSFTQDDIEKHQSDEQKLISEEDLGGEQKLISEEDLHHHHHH
Sequence of mouse LEPR extracellular domain expressed with a C-terminal myc-myc-hexahistidine tag (mLEPR.mmh) (P48356 other isoform, or with tags, fused parts or gaps): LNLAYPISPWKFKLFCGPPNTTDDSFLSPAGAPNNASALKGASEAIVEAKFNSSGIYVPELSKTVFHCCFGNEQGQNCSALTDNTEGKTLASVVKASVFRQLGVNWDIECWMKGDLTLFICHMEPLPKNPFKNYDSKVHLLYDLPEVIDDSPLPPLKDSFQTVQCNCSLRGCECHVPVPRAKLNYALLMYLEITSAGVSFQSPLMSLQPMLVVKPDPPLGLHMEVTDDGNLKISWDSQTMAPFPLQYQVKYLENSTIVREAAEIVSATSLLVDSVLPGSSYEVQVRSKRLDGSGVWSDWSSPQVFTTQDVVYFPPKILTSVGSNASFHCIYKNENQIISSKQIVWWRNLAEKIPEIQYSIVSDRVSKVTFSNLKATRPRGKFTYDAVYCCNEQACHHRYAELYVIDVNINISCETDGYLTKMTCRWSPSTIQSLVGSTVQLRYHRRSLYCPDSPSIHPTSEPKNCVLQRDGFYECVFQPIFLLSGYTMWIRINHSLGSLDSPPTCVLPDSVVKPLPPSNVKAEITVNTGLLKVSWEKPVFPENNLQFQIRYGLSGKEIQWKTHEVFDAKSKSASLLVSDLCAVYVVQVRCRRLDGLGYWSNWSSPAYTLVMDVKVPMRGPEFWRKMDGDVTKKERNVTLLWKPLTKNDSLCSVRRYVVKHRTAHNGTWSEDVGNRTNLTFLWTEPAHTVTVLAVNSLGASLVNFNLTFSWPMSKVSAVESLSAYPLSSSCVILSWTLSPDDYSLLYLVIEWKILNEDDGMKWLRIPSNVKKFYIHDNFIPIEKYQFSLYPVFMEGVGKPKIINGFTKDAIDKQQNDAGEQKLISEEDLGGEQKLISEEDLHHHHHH
T9 sequence (P48357 other isoform, or with tags, fused parts or gaps limits assumed): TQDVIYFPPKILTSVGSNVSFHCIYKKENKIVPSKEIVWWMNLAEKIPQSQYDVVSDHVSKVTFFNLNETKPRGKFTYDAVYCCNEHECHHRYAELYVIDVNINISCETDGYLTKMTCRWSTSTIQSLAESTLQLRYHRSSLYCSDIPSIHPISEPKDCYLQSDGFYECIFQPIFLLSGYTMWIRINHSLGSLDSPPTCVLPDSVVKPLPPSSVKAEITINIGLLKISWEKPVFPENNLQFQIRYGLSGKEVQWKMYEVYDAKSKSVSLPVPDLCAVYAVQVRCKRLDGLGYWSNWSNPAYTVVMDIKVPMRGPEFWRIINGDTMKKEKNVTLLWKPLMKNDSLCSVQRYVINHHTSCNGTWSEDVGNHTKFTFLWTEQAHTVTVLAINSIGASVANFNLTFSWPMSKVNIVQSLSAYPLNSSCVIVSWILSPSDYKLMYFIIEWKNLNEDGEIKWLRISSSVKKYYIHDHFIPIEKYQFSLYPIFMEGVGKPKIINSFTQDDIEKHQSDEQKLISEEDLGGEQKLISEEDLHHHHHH

| Binder | % activation, with 200 pM human Leptin [1] [%] | % activation, without human Leptin [1] [%] | EC50, STAT3-Luc reporter, with 200 pM human Leptin [1] [M] | EC50, STAT3-Luc reporter, without human Leptin [1] [pM] | binding result [2] | binding result [3] | MFI [4] [MFI] | MFI [5] [MFI] | MFI [6] [MFI] | MFI [7] [MFI] | MFI [8] [MFI] | MFI [9] [MFI] | MFI [10] [MFI] | MFI [11] [MFI] |
| --- | --- | --- | --- | --- | --- | --- | --- | --- | --- | --- | --- | --- | --- | --- |
| H4H16650P2 (antibody, human IgG4, V domains shown, Fully human antibody with human IgG4 Fc (H4H prefix)) VH: QVQLVESGGGVVQPGKSLRLSCVASGFTFSSDAMYWVRQAPGKGLEWVAVIYYDGNYQYYEDSVKGRFTISRDNSQNTLDLQMNSLRVDDTAVYFCARLNWDYWYLDLWGRGTLVTVSS VL: not shown | 88 | 68 | 5.19e-11 | 61.9 | no binding | no binding | 8 | 4720 | 2560 | 74 | 10 | 16 | 6 | 110 |
| H4H16679P2 (antibody, human IgG4, V domains shown, Fully human antibody with human IgG4 Fc (H4H prefix)) VH: QVQLVESGGGVVQPGRSLRLSCTASGFTFSSYAMYWVRQAPGKGLEWVSVIYYDGSYKYYADSVKGRFTISRDNSKNTLYLQMDSLRAEDTAVYYCASYNWNYWYFDFWGRGTLVTVSS VL: not shown | 88 | 65 | 7.37e-11 | 86.2 | no binding | no binding | 12 | 4390 | 2800 | 34 | 14 | 33 | 10 | 42 |

Continued, values first:

| % activation, with 200 pM human Leptin [1] [%] | % activation, without human Leptin [1] [%] | EC50, STAT3-Luc reporter, with 200 pM human Leptin [1] [M] | EC50, STAT3-Luc reporter, without human Leptin [1] [pM] | binding result [2] | binding result [3] | MFI [4] [MFI] | MFI [5] [MFI] | MFI [6] [MFI] | MFI [7] [MFI] | MFI [8] [MFI] | MFI [9] [MFI] | MFI [10] [MFI] | MFI [11] [MFI] | Binder |
| --- | --- | --- | --- | --- | --- | --- | --- | --- | --- | --- | --- | --- | --- | --- |
| 76 | 66 | 2.57e-10 | 207 | no binding | no binding | 9 | 2650 | 1750 | 15 | 7 | 116 | 40 | 14 | H4H17321P2 (antibody, human IgG4, V domains shown, Fully human antibody with human IgG4 Fc (H4H prefix)) VH: QVQLVESGGGVVQPGRSLRLSCEASGFSSSDNAMYWVRQAPGKGLEWVSVIYHDGSYKYYEDSVKGRFTIARDNSKNTLYLQMNSLRAEDTAVYYCARYNWNHWYFDVWGRGTLVTVSS VL: not shown |
| 76 | 68 | 1.91e-10 | 187 | no binding | no binding | 8 | 1250 | 938 | 14 | 8 | 91 | 20 | 8 | H4H17319P2 (antibody, human IgG4, V domains shown, Fully human antibody with human IgG4 Fc (H4H prefix)) VH: QVQLVESGGSVVQPGRSLRLSCAASGFTFSTYAMYWVRQTPGKGLEWVAVLYSDGSNKYYIDSVKGRFTISRDTSTNTLYLQMSSLRADDSALYYCARLNWDYWYFDLWGRGTLVTVSS VL: not shown |
